This note sets out measurements from patent US20080081047A1.

Positions count from the first letter of the chain named.

The labels stand for the following.
B1: F26G9 (antibody, V domains shown)
VH: VQLLESGTVLARPGASVKMSCKASGYSFTSYWMHWVKQRPGQGLEWIGAIYPGNSDTSYNQKFKGKAKLTAVTSASTAYMELSSLTNEDSAVYYCTRSVYYGYGYFDVWGAGTTVTVSS
VL: DILMTQSHKCMSTSVGDRVSITCKASQDVSTAVVWYQQKPGQFPKLLIYWASTRHTGVPDRFTGSGSGTDYTLTISSVQAEDLALYYCQQHYTTPYTFGGGTKLEIKR
B2: F26G10 (antibody, V domains shown)
VH: EVQLEESGTVLARPGASVKMSCKASGYSFTSYWMHWVKQRPGQGLDWIGAIYPENSDTSYNQKFKGKAKLTAVTSASTAYMEHSSLTNEDSAVYYCTRSVYYGYGYFDVWGAGTTVTVSS
VL: B1 VL with C10F, V34A, F43S, T93S
B3: F26G3 (antibody, V domains shown)
VH: EVRLQQSGPELVKPGASVKISCKTSGYTFTEYTMHWVKQSHGKNLEWIGGINPNNGGTTYNQKFKGKATLTVDKSSNTAYMELRSLTSEDSAVYYCSRGDYGTSYGYFDVWGAGTTVTVSS
VL: DILMTQSPTSFAVSLGQRATISCRTSQSVSTSSYSYMHWYQQKPGQPPKLLIKYASNLESGVPARFSGSGSGSDFTLNIHPVEEGDTATYYCQHSWEIPCAFGGGTKLEIKR
B4: F26G7 (antibody, V domains shown)
VH: VELLESGTVLARPGASVKMSCEASGYTFTTYWMHWIKQRPGQGLEWIGAIYPGNSDTTYNQKFKGKAKLTAVTSTSTAYMELSSLTNEDSAVYYCTREGIPQLLRTMDYWGQGTSVTVSS
VL: ELVMTQSPSSLSASLGERVSLTCRASQEISGYLSWLQQKPDGTIKRLIYAASTLDSGVPKRFSGSRSGSDYSLTISSLESEDFADYYCLQYISYPWTFGGGTKLEIKR

The target in one assay is SARS-HCoV antigen(s) of unknown identity (purified whole virus, infected Vero cell lysate or infected Vero cells). The experiment in a line: ELISA, virus heated 100 C 10 min, coated at 32 ng/well.
In turn, B1 registered an ELISA OD 405 nm, Denatured Lysate of 0.278 OD 405 nm.

Take B2: the ELISA OD 405 nm, Denatured Lysate came to 0.29 OD 405 nm.

The molecule B3 returned an ELISA OD 405 nm, Denatured Lysate of 0.276 OD 405 nm.

The molecule B4 yielded an ELISA OD 405 nm, Denatured Lysate of 0.382 OD 405 nm.

The target is the same in another assay. The experiment in a line: ELISA, OD on native virus against OD on heat-denatured virus.
B1 yielded an O.D. Reduction, Fold of 4.8 fold and an O.D. Reduction, Percent of 79%.

Molecule B2 had an O.D. Reduction, Fold of 4.3 fold and an O.D. Reduction, Percent of 77%.

B3 showed an O.D. Reduction, Fold of 4.5 fold and an O.D. Reduction, Percent of 78%.

Consider B4, for which the O.D. Reduction, Fold turned out to be 5 fold and the O.D. Reduction, Percent stood at 80%.

For another assay the target is unchanged. Briefly: ELISA, native gradient purified virus coated at 32 ng/well.
As to B1, the ELISA OD 405 nm, Viral Lysate (native) was found to be 1.34 OD 405 nm.

B2 displayed an ELISA OD 405 nm, Viral Lysate (native) of 1.26 OD 405 nm.

B3 yielded an ELISA OD 405 nm, Viral Lysate (native) of 1.25 OD 405 nm.

The molecule B4 showed an ELISA OD 405 nm, Viral Lysate (native) of 1.92 OD 405 nm.
